From patent publication US20140087995A1 (published 2014)
Numbered stars: 1 amine (or outer) side, 2 acyl side, 3 side chain; on linkers, the order of the positions; unused ones are H or OH. Bridge positions count the residues as written; N and C are the ends. Side chains are listed from the residue outwards. Ends that are not written are not given here. * marks the point of attachment. C20 diacid = O=C(O)CCCCCCCCCCCCCCCCCCC(=O)*; C18 diacid = O=C(O)CCCCCCCCCCCCCCCCC(=O)*; C16 diacid = O=C(O)CCCCCCCCCCCCCCC(=O)*; γGlu = O=C(O)[C@H](CCC(=O)[*:2])N[*:1]; C14 diacid = O=C(O)CCCCCCCCCCCCC(=O)*

T1: human calcitonin receptor (human, UniProt P30988 25-474)
T1 construct: whole, on cells; Membranes of BHK cells stably transfected with the human calcitonin receptor (Assay VII); also called hCTR; hCT
T1 sequence (looked up): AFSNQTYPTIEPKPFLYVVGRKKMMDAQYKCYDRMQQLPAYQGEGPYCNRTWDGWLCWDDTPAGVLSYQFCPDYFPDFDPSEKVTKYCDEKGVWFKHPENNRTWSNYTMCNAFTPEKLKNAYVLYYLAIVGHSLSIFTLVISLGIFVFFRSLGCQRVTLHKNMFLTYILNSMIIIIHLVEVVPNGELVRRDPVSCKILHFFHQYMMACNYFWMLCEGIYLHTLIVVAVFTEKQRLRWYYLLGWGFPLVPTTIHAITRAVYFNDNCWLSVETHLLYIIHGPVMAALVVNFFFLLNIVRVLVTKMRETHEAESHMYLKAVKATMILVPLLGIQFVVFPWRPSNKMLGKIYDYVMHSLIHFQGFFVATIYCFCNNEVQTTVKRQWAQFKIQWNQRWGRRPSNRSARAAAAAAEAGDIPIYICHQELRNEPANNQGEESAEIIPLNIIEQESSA

B1: N^ε1-[(4S)-4-carboxy-4-[[(4S)-4-carboxy-4-(19-carboxynonadecanoylamino)butanoyl]amino]butanoyl]-[Glu14,Arg17,Pro21,Pro27,Pro34,Glu35]-h-amylin (peptide)
peptide: K([γGlu-γGlu-C20 diacid])CNTATCATQRLAEFLRHSSPNFGAIPSSTNVGPETY-NH2
modifications: disulfide 2-7; N-terminus assumed
SMILES: CC[C@H](C)[C@H](NC(=O)[C@H](C)NC(=O)CNC(=O)[C@H](Cc1ccccc1)NC(=O)[C@H](CC(N)=O)NC(=O)[C@@H]1CCCN1C(=O)[C@H](CO)NC(=O)[C@H](CO)NC(=O)[C@H](Cc1c[nH]cn1)NC(=O)[C@H](CCCNC(=N)N)NC(=O)[C@H](CC(C)C)NC(=O)[C@H](Cc1ccccc1)NC(=O)[C@H](CCC(=O)O)NC(=O)[C@H](C)NC(=O)[C@H](CC(C)C)NC(=O)[C@H](CCCNC(=N)N)NC(=O)[C@H](CCC(N)=O)NC(=O)[C@@H](NC(=O)[C@H](C)NC(=O)[C@@H]1CSSC[C@H](NC(=O)[C@@H](N)CCCCNC(=O)CC[C@H](NC(=O)CC[C@H](NC(=O)CCCCCCCCCCCCCCCCCCC(=O)O)C(=O)O)C(=O)O)C(=O)N[C@@H](CC(N)=O)C(=O)N[C@@H]([C@@H](C)O)C(=O)N[C@@H](C)C(=O)N[C@@H]([C@@H](C)O)C(=O)N1)[C@@H](C)O)C(=O)N1CCC[C@H]1C(=O)N[C@@H](CO)C(=O)N[C@@H](CO)C(=O)N[C@H](C(=O)N[C@@H](CC(N)=O)C(=O)N[C@H](C(=O)NCC(=O)N1CCC[C@H]1C(=O)N[C@@H](CCC(=O)O)C(=O)N[C@H](C(=O)N[C@@H](Cc1ccc(O)cc1)C(N)=O)[C@@H](C)O)C(C)C)[C@@H](C)O
B2: N^ε1-[(4S)-4-carboxy-4-(15-carboxypentadecanoylamino)butanoyl]-[Arg17,Pro21,Pro27,His34]-h-amylin (peptide)
peptide: K([γGlu-C16 diacid])CNTATCATQRLANFLRHSSPNFGAIPSSTNVGHNTY-NH2
modifications: disulfide 2-7; N-terminus assumed
SMILES: CC[C@H](C)[C@H](NC(=O)[C@H](C)NC(=O)CNC(=O)[C@H](Cc1ccccc1)NC(=O)[C@H](CC(N)=O)NC(=O)[C@@H]1CCCN1C(=O)[C@H](CO)NC(=O)[C@H](CO)NC(=O)[C@H](Cc1c[nH]cn1)NC(=O)[C@H](CCCNC(=N)N)NC(=O)[C@H](CC(C)C)NC(=O)[C@H](Cc1ccccc1)NC(=O)[C@H](CC(N)=O)NC(=O)[C@H](C)NC(=O)[C@H](CC(C)C)NC(=O)[C@H](CCCNC(=N)N)NC(=O)[C@H](CCC(N)=O)NC(=O)[C@@H](NC(=O)[C@H](C)NC(=O)[C@@H]1CSSC[C@H](NC(=O)[C@@H](N)CCCCNC(=O)CC[C@H](NC(=O)CCCCCCCCCCCCCCC(=O)O)C(=O)O)C(=O)N[C@@H](CC(N)=O)C(=O)N[C@@H]([C@@H](C)O)C(=O)N[C@@H](C)C(=O)N[C@@H]([C@@H](C)O)C(=O)N1)[C@@H](C)O)C(=O)N1CCC[C@H]1C(=O)N[C@@H](CO)C(=O)N[C@@H](CO)C(=O)N[C@H](C(=O)N[C@@H](CC(N)=O)C(=O)N[C@H](C(=O)NCC(=O)N[C@@H](Cc1c[nH]cn1)C(=O)N[C@@H](CC(N)=O)C(=O)N[C@H](C(=O)N[C@@H](Cc1ccc(O)cc1)C(N)=O)[C@@H](C)O)C(C)C)[C@@H](C)O
B3: N^ε1-[(4S)-4-carboxy-4-(17-carboxyheptadecanoylamino)butanoyl]-[Arg17,Pro21,Pro27,His34]-h-amylin (peptide)
peptide: K([γGlu-C18 diacid])CNTATCATQRLANFLRHSSPNFGAIPSSTNVGHNTY-NH2
modifications: disulfide 2-7; N-terminus assumed
SMILES: CC[C@H](C)[C@H](NC(=O)[C@H](C)NC(=O)CNC(=O)[C@H](Cc1ccccc1)NC(=O)[C@H](CC(N)=O)NC(=O)[C@@H]1CCCN1C(=O)[C@H](CO)NC(=O)[C@H](CO)NC(=O)[C@H](Cc1c[nH]cn1)NC(=O)[C@H](CCCNC(=N)N)NC(=O)[C@H](CC(C)C)NC(=O)[C@H](Cc1ccccc1)NC(=O)[C@H](CC(N)=O)NC(=O)[C@H](C)NC(=O)[C@H](CC(C)C)NC(=O)[C@H](CCCNC(=N)N)NC(=O)[C@H](CCC(N)=O)NC(=O)[C@@H](NC(=O)[C@H](C)NC(=O)[C@@H]1CSSC[C@H](NC(=O)[C@@H](N)CCCCNC(=O)CC[C@H](NC(=O)CCCCCCCCCCCCCCCCC(=O)O)C(=O)O)C(=O)N[C@@H](CC(N)=O)C(=O)N[C@@H]([C@@H](C)O)C(=O)N[C@@H](C)C(=O)N[C@@H]([C@@H](C)O)C(=O)N1)[C@@H](C)O)C(=O)N1CCC[C@H]1C(=O)N[C@@H](CO)C(=O)N[C@@H](CO)C(=O)N[C@H](C(=O)N[C@@H](CC(N)=O)C(=O)N[C@H](C(=O)NCC(=O)N[C@@H](Cc1c[nH]cn1)C(=O)N[C@@H](CC(N)=O)C(=O)N[C@H](C(=O)N[C@@H](Cc1ccc(O)cc1)C(N)=O)[C@@H](C)O)C(C)C)[C@@H](C)O
B4: N^ε1-[(4S)-4-carboxy-4-(13-carboxytridecanoylamino)butanoyl]-[Arg17,Pro21,Pro27,His34]-h-amylin (peptide)
peptide: K([γGlu-C14 diacid])CNTATCATQRLANFLRHSSPNFGAIPSSTNVGHNTY-NH2
modifications: disulfide 2-7; N-terminus assumed
SMILES: CC[C@H](C)[C@H](NC(=O)[C@H](C)NC(=O)CNC(=O)[C@H](Cc1ccccc1)NC(=O)[C@H](CC(N)=O)NC(=O)[C@@H]1CCCN1C(=O)[C@H](CO)NC(=O)[C@H](CO)NC(=O)[C@H](Cc1c[nH]cn1)NC(=O)[C@H](CCCNC(=N)N)NC(=O)[C@H](CC(C)C)NC(=O)[C@H](Cc1ccccc1)NC(=O)[C@H](CC(N)=O)NC(=O)[C@H](C)NC(=O)[C@H](CC(C)C)NC(=O)[C@H](CCCNC(=N)N)NC(=O)[C@H](CCC(N)=O)NC(=O)[C@@H](NC(=O)[C@H](C)NC(=O)[C@@H]1CSSC[C@H](NC(=O)[C@@H](N)CCCCNC(=O)CC[C@H](NC(=O)CCCCCCCCCCCCC(=O)O)C(=O)O)C(=O)N[C@@H](CC(N)=O)C(=O)N[C@@H]([C@@H](C)O)C(=O)N[C@@H](C)C(=O)N[C@@H]([C@@H](C)O)C(=O)N1)[C@@H](C)O)C(=O)N1CCC[C@H]1C(=O)N[C@@H](CO)C(=O)N[C@@H](CO)C(=O)N[C@H](C(=O)N[C@@H](CC(N)=O)C(=O)N[C@H](C(=O)NCC(=O)N[C@@H](Cc1c[nH]cn1)C(=O)N[C@@H](CC(N)=O)C(=O)N[C@H](C(=O)N[C@@H](Cc1ccc(O)cc1)C(N)=O)[C@@H](C)O)C(C)C)[C@@H](C)O

Molecular target: T1, human calcitonin receptor
Experiment: ratio of IC50 at hCTR over IC50 at hAmylin-R (SPA competition assays)
Procedure: The resulting pellet was resuspended, homogenized and centrifuged (20.000 rpm, 15 min) in a buffer containing 20 mM Na-HEPES and 0.1 mM EDTA (pH 7.4, buffer 2). The resulting pellet was resuspended in buffer 2 and protein concentration was measured (BCA protein Assay, Pierce). The homogenate was kept cold during the whole procedure. The membranes were kept at −80° C. until use. The assay was performed in a 384 well Optiplate (PerkinElmer) in a total volume of 40 ul. Membranes were mixed with SPA beads. Final concentration of membranes 35 ng/μL final and SPA beads was 0.05 mg/well. Test-compounds were dissolved in DMSO and further diluted in assay buffer (50 mM Hepes, pH 7.4, 1 mM CaCl2, 5 mM MgCl₂, 0.1% OA and 0.02% Tween20). […] The final mixture was incubated with shaking at 400 rpm for 120 min at 25° C. prior to centrifugation (1500 rpm, 10 min). Samples were analyzed on TopCounter™ (Packard). The IC₅₀ was calculated using (one site binding competition analysis) GraphPad Prism5 as a measure of receptor affinity.
Membranes were prepared in the following way; the cells were rinsed with PBS and incubated with Versene for approximately 5 min before harvesting. The cells were flushed with PBS and the cell-suspension was centrifuged for 5 min at 1000 rpm. Cells were homogenized (Ultrathurrax) in a buffer containing 20 mM Na-HEPES and 10 mM EDTA (pH 7.4) and centrifuged at 20.000 rpm for 15 min. The resulting pellet was resuspended, homogenized and centrifuged (20.000 rpm, 15 min) in a buffer containing 20 mM Na-HEPES and 0.1 mM EDTA (pH 7.4, buffer 2). The resulting pellet was resuspended in buffer 2 and protein concentration was measured (BCA protein Assay, Pierce). The homogenate was kept cold during the whole procedure. The membranes were kept at −80° C. until use. Assay was performed in a 384 well Optiplate (PerkinElmer) in a total volume of 40 ul. Membranes were mixed with SPA beads.

Row | Ratio hCT/hAmylin binding | Binder
1 | 17.6 | B1
2 | 18.5 | B2
3 | 59.4 | B3
4 | 23.5 | B4

Molecular target: T1, human calcitonin receptor
Experiment: SPA competition against 125I-calcitonin, membranes of BHK cells with human calcitonin receptor (Assay VII)
Procedure: Membranes were prepared in the following way; the cells were rinsed with PBS and incubated with Versene for approximately 5 min before harvesting. The cells were flushed with PBS and the cell-suspension was centrifuged for 5 min at 1000 rpm. Cells were homogenized (Ultrathurrax) in a buffer containing 20 mM Na-HEPES and 10 mM EDTA (pH 7.4) and centrifuged at 20.000 rpm for 15 min. The resulting pellet was resuspended, homogenized and centrifuged (20.000 rpm, 15 min) in a buffer containing 20 mM Na-HEPES and 0.1 mM EDTA (pH 7.4, buffer 2). The resulting pellet was resuspended in buffer 2 and protein concentration was measured (BCA protein Assay, Pierce). The homogenate was kept cold during the whole procedure. The membranes were kept at −80° C. until use. Assay was performed in a 384 well Optiplate (PerkinElmer) in a total volume of 40 ul. Membranes were mixed with SPA beads. Final concentration of membranes 35 ng/μL final and Final concentration of SPA beads was 0.05 mg/well. Test-compounds were dissolved in DMSO and further diluted in assay buffer (50 mM Hepes, pH 7.4, 1 mM CaCl2, 5 mM MgCl₂, 0.1% OA and 0.02% Tween20). […] The final mixture was incubated for 120 min with shaking at 400 rpm at 25° C. prior to centrifugation (1500 rpm, 10 min). Samples were analyzed on TopCounter™ (Packard). The […] was calculated using (one site binding competition analysis) GraphPad Prism5 as a measure of receptor affinity.

Row | IC50 | Binder
5 | 2.13 nM | B1
6 | 10.8 nM | B2
7 | 22.7 nM | B3
8 | 24.3 nM | B4
